EC50 data for two molecules are collected here from article PMC8920075.

In the assay the target is SARS CoV-1 RBD (SARS-CoV-1). The assay can be described thus: ELISA. (An ELISA detects its analyte on a solid surface through an enzyme-linked reagent.)

Usually EC50 stands for the concentration needed to bring the measured effect to its halfway point. Lower therefore signals higher potency in that assay. Molecule REGN10933 (Casirivimab) (antibody) displayed an EC50 of 14 nM.

B1: REGN-10987 (Imdevimab) (antibody, V domains shown)
VH: QVQLVESGGGVVQPGRSLRLSCAASGFTFSNYAMYWVRQAPGKGLEWVAVISYDGSNKYYADSVKGRFTISRDNSKNTLYLQMNSLRTEDTAVYYCASGSDYGDYLLVYWGQGTLVTVSS
VL: QSALTQPASVSGSPGQSITISCTGTSSDVGGYNYVSWYQQHPGKAPKLMIYDVSKRPSGVSNRFSGSKSGNTASLTISGLQSEDEADYYCNSLTSISTWVFGGGTKLTVL
Consider B1, for which the EC50 was > 100 nM.
